Positions count from the first letter of the chain named.
B1: E9-SE5 (antibody, V domains shown)
VH: EVQLQESGPGLVKPSETLSLTCTVSGGSISSSSYYWGWIRQPPGKGLEWIGDIYYTGSTYYNPSLKSRVTISVDTSKNQFSLKLSSVTAADTAVYYCAREDVILRGGSDYWGQGTLVTVSS
VL: EYVLTQSPDFQSVTPKEKVTITCSGQRLGDKYASWYQQKPDQSPKLVIYEDSKRPSGVPSRFSGSNSGDDATLTINSLEAEDAATYYCQAWDRDTGVFGQGTKVEIKR
notes: full-length human IgG1
B2: E9-SE8 (antibody, V domains shown)
VH: B1 VH with S15G, P42A, S81Y, T88R, A90E
VL: B1 VL
notes: full-length human IgG1
B3: E9-SE2 (antibody, V domains shown)
VH: EVQLVESGGGLVQPGGSLRLSCAVSGGSISSSSYYWGWIRQAPGKGLEWIGDIYYTGSTYYNPSLKSRVTISVDTSKNSFYLQMNSLRAEDTAVYYCAREDVILRGGSDYWGQGTLVTVSS
VL: SYELTQPPSVSVSPGQTASITCSGQRLGDKYASWYQQKPGQSPVLVIYEDSKRPSGIPERFSGSNSGDTATLTISGTQPMDEADYYCQAWDRDTGVFGYGTRVTVLG
notes: full-length human IgG1
B4: E9-SE3 (antibody, V domains shown)
VH: B1 VH with S15G, P42A, S81Y, T88R, A90E
VL: B3 VL
notes: full-length human IgG1
B5: E9-SE4 (antibody, V domains shown)
VH: B1 VH
VL: B3 VL with S1L, E3V, P79T, Y86L, Y99G, R102K
notes: full-length human IgG1
B6: E9-SE6 (antibody, V domains shown)
VH: B1 VH with S15G, P42A, S81Y, T88R, A90E
VL: B3 VL with S1L, E3V, P79T, Y86L, Y99G, R102K
notes: full-length human IgG1
B7: E9-SE7 (antibody, V domains shown)
VH: B3 VH
VL: B1 VL
notes: full-length human IgG1
B8: E9-FR1 (antibody, V domains shown)
VH: EVQLVQSGTEVKKPGESLKISCKVSGGSISSSSYYWGWIRQMPGKGLEWIGDIYYTGSTYYNPSLKSQVTISVDTSFNTFFLQWSSLKASDTAMYYCAREDVILRGGSDYWGQGTMVTVSS
VL: EYVLTQSPATLSVSPGERATLSCSGQRLGDKYASWYQQKPGQSPRLVIYEDSKRPSDIPARFSGSNSGDEATLTISSLQSEDFAVYYCQAWDRDTGVFGQGTRLEIKR
notes: full-length human IgG1
B9: E9-FR2 (antibody, V domains shown)
VH: EVTLRESGPALVKPTQTLTLTCTVSGGSISSSSYYWGWIRQPPGKGLEWIGDIYYTGSTYYNPSLKSRVTISVDTSKNQFVLTMTNMDPVDTATYYCAREDVILRGGSDYWGQGTTVTVSS
VL: DYVLTQSPDSLAVSLGERATINCSGQRLGDKYASWYQQKPGQSPKLVIYEDSKRPSGIPDRFSGSNSGDDATLTISSLQAEDVAVYYCQAWDRDTGVFGGGTKVEIKR
notes: full-length human IgG1
B10: E9.19 (antibody, V domains shown)
VH: B1 VH with E100F, I103S, R105G, Y110T
VL: SYELTQPPSVSVSPGQTASITCSGQRLGDKYASWYQQKPGQSPVLVIYEDSKRPSGIPERFSGSNSGDTATLTISGTQPMDEADYYCQAWDRDTGVFGYGTKVTVL
notes: also called DLL4-E9-19 hIgG1/L
B11: E9.2B (antibody, V domains shown)
VH: B1 VH with S33N, Y54N, T56N, S58N, D101A, I103A, R105G, S108A, Y110D
VL: B10 VL with Q25E, R26G, A32V, K52T, R92S, D93E, Y99S

What follows are binders tested against T1, human DLL4 extracellular domain (human, UniProt Q9NR61 27-529) (assay: Biacore SPR;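 on koff: surface plasmon resonance on a Biacore instrument, antibodies captured on immobilized anti-human Fc, purified recombinant DLL4 extracellular domain injected as analyte, binding followed over time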).
T1 construct: extracellular domain; coated on plates in the sVEGFR1 assay; also called huDLL4 ECD; Human DLL4 ECD
Protocol: (§1) The BIACORE® surface plasmon resonance assay (Biacore, Inc., Piscataway, N.J., US) determines the affinity of antibodies with kinetic measurements of on-rate and off-rate constants. Binding of DLL4 antibodies to a purified recombinant DLL4 extracellular domain is determined by surface plasmon resonance-based measurements with a Biacore® instrument (either a Biacore 2000, Biacore 3000, or Biacore T100, GE Healthcare, Piscataway, N.J. US) using running buffer HBS-EPB (10 mM HEPES [pH 7.4], 150 mM NaCl, 3 mM EDTA, 0.1 mg/ml BSA and 0.005% surfactant P20) at 25° C. For example, approximately 9000 RU of goat anti-human Fc specific polyclonal antibody (Thermo Fisher Scientific Inc., Rockford, Ill., US) diluted in 10 mM sodium acetate (pH 4.5) is directly immobilized across a CM5 research grade biosensor chip using a standard amine coupling kit according to manufacturer's instructions and procedures at 25 μg/ml. Unreacted moieties on the biosensor surface are blocked with ethanolamine. For kinetic analysis, rate equations derived from the 1:1 Langmuir binding model are fitted simultaneously to multiple antigen injections (using global fit analysis) with the use of Scrubber 2 (BioLogic Software). […] The equilibrium dissociation constant KD (M) of the reaction between antibodies and the target antigen is then calculated from the kinetic rate constants by the following formula: KD=Koff/Kₒₙ. Binding is recorded as a function of time and kinetic rate constants are calculated. In this assay, on-rates as fast as 10⁶ M⁻¹s⁻¹ and off-rates as slow as 10⁻⁶ s⁻¹ can be measured.

Binder	Kd
B1	1.57 nM
B2	2 nM
B3	2.43 nM
B4	2.26 nM
B5	2.38 nM
B6	0.64 nM
B7	1.69 nM

The binders below were run against T2, mouse DLL4 extracellular domain (mouse, UniProt Q9JI71 27-532) (assay: Biacore SPR;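 on koff: surface plasmon resonance on a Biacore instrument, antibodies captured on immobilized anti-human Fc, purified recombinant DLL4 extracellular domain injected as analyte, binding followed over time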).
T2 construct: extracellular domain; also called muDLL4 ECD; Mouse DLL4 ECD
T2 sequence (Q9JI71 27-532): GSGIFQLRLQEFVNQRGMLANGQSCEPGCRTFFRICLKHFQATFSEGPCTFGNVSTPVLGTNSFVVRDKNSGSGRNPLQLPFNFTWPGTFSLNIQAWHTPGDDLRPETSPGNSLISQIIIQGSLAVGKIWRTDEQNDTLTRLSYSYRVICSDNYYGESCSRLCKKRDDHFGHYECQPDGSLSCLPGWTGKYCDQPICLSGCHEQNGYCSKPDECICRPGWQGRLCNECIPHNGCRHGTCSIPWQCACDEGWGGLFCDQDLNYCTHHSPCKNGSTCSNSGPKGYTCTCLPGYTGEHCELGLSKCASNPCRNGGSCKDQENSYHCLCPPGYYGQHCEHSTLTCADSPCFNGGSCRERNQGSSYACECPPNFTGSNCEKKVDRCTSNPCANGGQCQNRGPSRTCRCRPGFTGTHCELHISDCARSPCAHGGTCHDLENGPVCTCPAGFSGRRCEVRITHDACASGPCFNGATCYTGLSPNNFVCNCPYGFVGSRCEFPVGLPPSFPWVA
Protocol: as §1

Binder	Kd
B1	12.8 nM
B2	13 nM
B3	15.1 nM
B4	12.1 nM
B5	10.5 nM
B6	10 nM
B7	16.2 nM

Target: T1, human DLL4 extracellular domain
Assay: Biacore SPR;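 on koff: surface plasmon resonance on a Biacore instrument, antibodies captured on immobilized anti-human Fc, purified recombinant DLL4 extracellular domain injected as analyte, binding followed over time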
Remark: another data set of the same source
Protocol: as §1

Binder	Kd
B8	0.72 nM
B9	0.31 nM

Target: T2, mouse DLL4 extracellular domain
Assay: Biacore SPR;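 on koff: surface plasmon resonance on a Biacore instrument, antibodies captured on immobilized anti-human Fc, purified recombinant DLL4 extracellular domain injected as analyte, binding followed over time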
Remark: another data set of the same source
Protocol: as §1

Binder	Kd
B8	1.6 nM
B9	0.69 nM

Target: T1, human DLL4 extracellular domain
Assay: Biacore SPR
Remark: another data set of the same source
Protocol: (§2) Binding of DLL4 antibodies to a purified recombinant DLL4 extracellular domain is determined by surface plasmon resonance-based measurements with a Biacore® instrument (either a Biacore 2000, Biacore 3000, or Biacore T100, GE Healthcare, Piscataway, N.J. US) using running buffer HBS-EPB (10 mM HEPES [pH 7.4], 150 mM NaCl, 3 mM EDTA, 0.1 mg/ml BSA and 0.005% surfactant P20) at 25° C. For example, approximately 9000 RU of goat anti-human Fc specific polyclonal antibody (Thermo Fisher Scientific Inc., Rockford, Ill., US) diluted in 10 mM sodium acetate (pH 4.5) is directly immobilized across a CM5 research grade biosensor chip using a standard amine coupling kit according to manufacturer's instructions and procedures at 25 μg/ml. Unreacted moieties on the biosensor surface are blocked with ethanolamine. For kinetic analysis, rate equations derived from the 1:1 Langmuir binding model are fitted simultaneously to multiple antigen injections (using global fit analysis) with the use of Scrubber 2 (BioLogic Software). […] The equilibrium dissociation constant KD (M) of the reaction between antibodies and the target antigen is then calculated from the kinetic rate constants by the following formula: KD=Koff/Kₒₙ. Binding is recorded as a function of time and kinetic rate constants are calculated. In this assay, on-rates as fast as 10⁶ M⁻¹s⁻¹ and off-rates as slow as 10⁻⁶ s⁻¹ can be measured.

Binder	Kd	koff	kon
B10	0.69 nM	5.17e-05 s⁻¹	74900 M⁻¹ s⁻¹
B11	0.02 nM	7.9e-06 s⁻¹	356000 M⁻¹ s⁻¹

Target: T2, mouse DLL4 extracellular domain
Assay: Biacore SPR
Remark: another data set of the same source
Protocol: as §2

Binder	Kd	koff	kon
B10	3.07 nM	0.000206 s⁻¹	67000 M⁻¹ s⁻¹

Each binder was assayed against T1, human DLL4 extracellular domain (assay: capture ELISA).
Protocol: (§3) ELISA plates were washed 3 times with wash buffer (PBS, 0.05% Tween-20) and then blocked with 200 ml/well blocking buffer (D-PBS, 1% BSA, 1 mM CaCl₂, 0.05% Tween-20) for 1 hour at 25° C. Plates were washed 3 times and incubated with 100 μl/well DLL4 antibodies (0.0001-100 nM, 10-fold serial dilution in blocking buffer) for 1 hour at 25° C., and then washed again 3 times. […] The reaction was stopped after 2 minutes at 25° C. with 100 μl/well 2 N H2SO₄ and the absorbance was read at 450 nm. Data were analyzed using Graphpad Prism software and EC₅₀ values were reported.

Binder	EC50
B10	0.17 nM
B11	0.16 nM

The binders below were run against T2, mouse DLL4 extracellular domain (assay: capture ELISA).
Protocol: as §3

Binder	EC50
B10	0.17 nM
B11	0.16 nM

What follows are binders tested against T3, human DLL4-his (human, UniProt Q9NR61 27-529) (assay: ELISA on DLL4-his).
T3 construct: extracellular domain
Protocol: (§4) After the final wash, plates were incubated with 100 μl/well ELISA substrate (Sigma # T8665). The reaction was stopped after 8 minutes at 25° C. with 100 μl/well 1N HCl and the absorbance was read at 450 nm. Data were analyzed using Graphpad Prism software and EC50 values were reported.

Binder	EC50
B1	0.16 nM
B2	0.18 nM
B3	0.18 nM
B4	0.18 nM
B5	0.17 nM
B6	0.17 nM
B7	0.17 nM

The binders below were run against T4, mouse DLL4-his (mouse, UniProt Q9JI71 27-532) (assay: ELISA on DLL4-his).
T4 construct: extracellular domain; not shown: his tag
T4 sequence (Q9JI71 27-532): as above

Binder	EC50
B1	0.19 nM
B2	0.19 nM
B3	0.2 nM
B4	0.2 nM
B5	0.2 nM
B6	0.19 nM
B7	0.17 nM

Target: T3, human DLL4-his
Assay: ELISA on DLL4-his
Remark: another data set of the same source
Protocol: as §4

Binder	EC50
B8	0.11 nM
B9	0.105 nM

Target: T4, mouse DLL4-his
Assay: ELISA on DLL4-his
Remark: another data set of the same source
Protocol: as §4

Binder	EC50
B8	0.13 nM
B9	0.125 nM

What follows are binders tested against T5, human DLL4 on the cell surface (human, UniProt Q9NR61 27-685) (assay: FACS on DLL4 cells).
T5 construct: whole, on cells; also called HEK293-hDLL4; hDLL4-293G
Protocol: (§5) Stable cell lines overexpressing cell-surface DLL4 were harvested from tissue culture flasks, washed four times and resuspended in phosphate buffered saline (PBS) containing 1% bovine serum albumin and 1 mM CaCl₂ (FACS buffer), 1.5×10³ cells were incubated with antibodies at various concentrations in FACS buffer for 60 minutes on ice. Cells were washed twice and 50 μL of R-phycoerythrin-conjugated anti-rat IgG. […] Following an incubation on ice (4° C., 60 minutes), cells were washed three times and resuspended in FACS buffer. Fluorescence was measured using a Becton Dickinson FACSCalibur-HTS (Becton Dickinson, San Jose. Calif., US). Data were analyzed using Graphpad Prism software and EC₅₀ values were reported as the concentration of antibody to achieve 50% of maximal DLL4 antibodies binding to DLL4 expressing cells.

Binder	Kd
B1	7.81 nM
B2	2.67 nM
B3	5.2 nM
B4	2.29 nM
B6	4.25 nM
B7	2.28 nM

The binders below were run against T6, mouse DLL4 on the cell surface (mouse, UniProt Q9JI71 27-686) (assay: FACS on DLL4 cells).
T6 construct: whole, on cells; also called HEK293-mDLL4; mDLL4-293G
T6 sequence (Q9JI71 27-686): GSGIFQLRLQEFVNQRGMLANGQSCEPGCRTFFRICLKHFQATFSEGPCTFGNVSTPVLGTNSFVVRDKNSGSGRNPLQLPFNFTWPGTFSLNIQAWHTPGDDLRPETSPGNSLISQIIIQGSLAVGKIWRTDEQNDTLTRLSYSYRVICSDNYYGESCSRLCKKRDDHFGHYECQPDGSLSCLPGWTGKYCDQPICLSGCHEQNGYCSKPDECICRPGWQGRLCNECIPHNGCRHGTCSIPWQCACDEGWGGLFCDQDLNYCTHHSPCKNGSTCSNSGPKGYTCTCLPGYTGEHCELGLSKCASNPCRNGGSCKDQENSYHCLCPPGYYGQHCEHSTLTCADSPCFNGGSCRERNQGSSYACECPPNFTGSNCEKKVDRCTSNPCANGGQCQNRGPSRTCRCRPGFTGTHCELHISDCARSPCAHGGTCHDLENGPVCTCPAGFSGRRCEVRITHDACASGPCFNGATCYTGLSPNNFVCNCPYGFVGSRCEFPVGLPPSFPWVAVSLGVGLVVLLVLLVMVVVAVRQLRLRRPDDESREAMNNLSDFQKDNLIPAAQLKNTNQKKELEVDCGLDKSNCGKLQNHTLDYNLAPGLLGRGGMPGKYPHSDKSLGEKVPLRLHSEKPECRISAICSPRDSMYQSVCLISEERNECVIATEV
Protocol: as §5

Binder	Kd
B1	2.9 nM
B2	2.32 nM
B3	0.87 nM
B4	0.74 nM
B5	1.15 nM
B6	1.18 nM
B7	2.24 nM

Target: T5, human DLL4 on the cell surface
Assay: FACS on DLL4 cells
Remark: another data set of the same source
Protocol: as §5

Binder	Kd
B8	4 nM
B9	6.2 nM

Target: T6, mouse DLL4 on the cell surface
Assay: FACS on DLL4 cells
Remark: another data set of the same source
Protocol: as §5

Binder	Kd
B8	2.51 nM
B9	3.57 nM

Target: T5, human DLL4 on the cell surface
Assay: FACS on DLL4 cells
Remark: another data set of the same source

Binder	EC50
B10	2.79 nM
B11	1.78 nM

Target: T6, mouse DLL4 on the cell surface
Assay: FACS on DLL4 cells
Remark: another data set of the same source

Binder	EC50
B10	0.54 nM
B11	0.35 nM

These binders were tested against T5, human DLL4 on the cell surface (assay: cell-based or functional assay).

Binder	Inhibition of Notch activation via huDLL4 cells, coculture (IC50, nM)
B10	4.4 nM
B11	2.1 nM

The binders below were run against T5, human DLL4 on the cell surface (assay: competition FACS, competitor huNotch-1).
Protocol: (§6) Notch blocking assay: Briefly, stable cell lines overexpressing cell-surface DLL4 were harvested from tissue culture flasks and re-suspended in phosphate buffered saline (PBS) containing 1% bovine serum albumin and 1 mM CaCl₂ (FACS buffer). HEK293-hDLL4 or HEK293-mDLL4 cells were dispensed into 96-well plate (v-bottom) at 1.5×10⁵ cells/well in FACS buffer. […] After washing the cells two times with FACS buffer, 50 μL of R-phycoerythrin-conjugated streptavidin (1:150 dilution in FACS buffer) (Jackson ImmunoResearch, West Grove, Pa., US, catalog no. 016-110-084) were added. Following an incubation on ice (4° C., 60 minutes), cells were washed three times and resuspended in FACS buffer. Fluorescence was measured using a Becton Dickinson FACSCalibur-HTS (Becton Dickinson, San Jose. Calif.).

Binder	IC50
B1	6.38 nM
B2	9.25 nM
B3	5.61 nM
B4	6.75 nM
B5	5.82 nM
B6	8.16 nM
B7	7.81 nM

What follows are binders tested against T6, mouse DLL4 on the cell surface (assay: competition FACS, competitor huNotch-1).
Protocol: as §6

Binder	IC50
B1	1.76 nM
B2	2.3 nM
B3	1.23 nM
B4	1.25 nM
B5	1.71 nM
B6	1.53 nM
B7	1.94 nM

Target: T5, human DLL4 on the cell surface
Assay: competition FACS, competitor huNotch-1
Remark: another data set of the same source
Protocol: as §6

Binder	IC50
B8	1.57 nM
B9	3.03 nM

Target: T6, mouse DLL4 on the cell surface
Assay: competition FACS, competitor huNotch-1
Remark: another data set of the same source
Protocol: as §6

Binder	IC50
B8	0.98 nM
B9	1.07 nM

Target: T5, human DLL4 on the cell surface
Assay: competition FACS, competitor huNotch-1
Remark: another data set of the same source
Protocol: as §6

Binder	IC50
B10	4.9 nM
B11	2.63 nM

Target: T6, mouse DLL4 on the cell surface
Assay: competition FACS, competitor huNotch-1
Remark: another data set of the same source
Protocol: as §6

Binder	IC50
B10	0.44 nM
B11	0.34 nM

These binders were tested against T1, human DLL4 extracellular domain (assay: competition ELISA, competitor huNotch-1).
Protocol: (§7) Plates were then washed 3 times with wash buffer (PBS, 0.05% Tween-20) and blocked with 200 μl/well blocking buffer (D-PBS, 1% BSA, 1 mM CaCl₂, 0.05% Tween-20) for 1 hour at 25° C. […] Assay plates were washed after blocking, and incubated with DLL4/antibody mixtures (100 μl/well, 1 hour at 25° C. with shaking). […] After a final wash, plates were developed using 100 μl/well substrate (TMB Sigma # T8665), and the reaction was stopped after an 8-minute incubation at 25° C. (for muDLL4 ELISA) and after 20 minute incubation at 25° C. (for huDLL4 ELISA) using 100 μl/well 1N HCl, and the absorbance was read at 450 nm.

Binder	IC50
B1	2.6 nM
B2	2.5 nM
B3	2.6 nM
B4	2.5 nM
B5	2.7 nM
B6	2.5 nM
B7	2.4 nM

These binders were tested against T2, mouse DLL4 extracellular domain (assay: competition ELISA, competitor huNotch-1).
Protocol: as §7

Binder	IC50
B1	2.4 nM
B2	2.6 nM
B3	2.2 nM
B4	2.1 nM
B5	2.9 nM
B6	2.9 nM
B7	2.4 nM

Target: T1, human DLL4 extracellular domain
Assay: competition ELISA, competitor huNotch-1
Remark: another data set of the same source
Protocol: as §7

Binder	IC50
B8	1.54 nM
B9	1.52 nM

Target: T2, mouse DLL4 extracellular domain
Assay: competition ELISA, competitor huNotch-1
Remark: another data set of the same source
Protocol: as §7

Binder	IC50
B8	3.35 nM
B9	4.35 nM

Target: T1, human DLL4 extracellular domain
Assay: competition ELISA, competitor huNotch-1
Remark: another data set of the same source
Protocol: as §7

Binder	IC50
B10	1.8 nM
B11	2.3 nM

Target: T2, mouse DLL4 extracellular domain
Assay: competition ELISA, competitor huNotch-1
Remark: another data set of the same source
Protocol: as §7

Binder	IC50
B10	1.3 nM
B11	2.8 nM

From US20200255508A1 (AbbVie / Abbott, published 2020)
